Experimental data reported in patent US20240295565A1 (Genentech, published 2024).

Target: human UNC80 (uncoordinated 80; protein unc-80 homolog) (human) (UniProt Q8N2C7)
Test: cryo-EM structure, crossover interface

Sequence of human UNC80 (uncoordinated 80; protein unc-80 homolog) (human) (Q8N2C7 whole entry): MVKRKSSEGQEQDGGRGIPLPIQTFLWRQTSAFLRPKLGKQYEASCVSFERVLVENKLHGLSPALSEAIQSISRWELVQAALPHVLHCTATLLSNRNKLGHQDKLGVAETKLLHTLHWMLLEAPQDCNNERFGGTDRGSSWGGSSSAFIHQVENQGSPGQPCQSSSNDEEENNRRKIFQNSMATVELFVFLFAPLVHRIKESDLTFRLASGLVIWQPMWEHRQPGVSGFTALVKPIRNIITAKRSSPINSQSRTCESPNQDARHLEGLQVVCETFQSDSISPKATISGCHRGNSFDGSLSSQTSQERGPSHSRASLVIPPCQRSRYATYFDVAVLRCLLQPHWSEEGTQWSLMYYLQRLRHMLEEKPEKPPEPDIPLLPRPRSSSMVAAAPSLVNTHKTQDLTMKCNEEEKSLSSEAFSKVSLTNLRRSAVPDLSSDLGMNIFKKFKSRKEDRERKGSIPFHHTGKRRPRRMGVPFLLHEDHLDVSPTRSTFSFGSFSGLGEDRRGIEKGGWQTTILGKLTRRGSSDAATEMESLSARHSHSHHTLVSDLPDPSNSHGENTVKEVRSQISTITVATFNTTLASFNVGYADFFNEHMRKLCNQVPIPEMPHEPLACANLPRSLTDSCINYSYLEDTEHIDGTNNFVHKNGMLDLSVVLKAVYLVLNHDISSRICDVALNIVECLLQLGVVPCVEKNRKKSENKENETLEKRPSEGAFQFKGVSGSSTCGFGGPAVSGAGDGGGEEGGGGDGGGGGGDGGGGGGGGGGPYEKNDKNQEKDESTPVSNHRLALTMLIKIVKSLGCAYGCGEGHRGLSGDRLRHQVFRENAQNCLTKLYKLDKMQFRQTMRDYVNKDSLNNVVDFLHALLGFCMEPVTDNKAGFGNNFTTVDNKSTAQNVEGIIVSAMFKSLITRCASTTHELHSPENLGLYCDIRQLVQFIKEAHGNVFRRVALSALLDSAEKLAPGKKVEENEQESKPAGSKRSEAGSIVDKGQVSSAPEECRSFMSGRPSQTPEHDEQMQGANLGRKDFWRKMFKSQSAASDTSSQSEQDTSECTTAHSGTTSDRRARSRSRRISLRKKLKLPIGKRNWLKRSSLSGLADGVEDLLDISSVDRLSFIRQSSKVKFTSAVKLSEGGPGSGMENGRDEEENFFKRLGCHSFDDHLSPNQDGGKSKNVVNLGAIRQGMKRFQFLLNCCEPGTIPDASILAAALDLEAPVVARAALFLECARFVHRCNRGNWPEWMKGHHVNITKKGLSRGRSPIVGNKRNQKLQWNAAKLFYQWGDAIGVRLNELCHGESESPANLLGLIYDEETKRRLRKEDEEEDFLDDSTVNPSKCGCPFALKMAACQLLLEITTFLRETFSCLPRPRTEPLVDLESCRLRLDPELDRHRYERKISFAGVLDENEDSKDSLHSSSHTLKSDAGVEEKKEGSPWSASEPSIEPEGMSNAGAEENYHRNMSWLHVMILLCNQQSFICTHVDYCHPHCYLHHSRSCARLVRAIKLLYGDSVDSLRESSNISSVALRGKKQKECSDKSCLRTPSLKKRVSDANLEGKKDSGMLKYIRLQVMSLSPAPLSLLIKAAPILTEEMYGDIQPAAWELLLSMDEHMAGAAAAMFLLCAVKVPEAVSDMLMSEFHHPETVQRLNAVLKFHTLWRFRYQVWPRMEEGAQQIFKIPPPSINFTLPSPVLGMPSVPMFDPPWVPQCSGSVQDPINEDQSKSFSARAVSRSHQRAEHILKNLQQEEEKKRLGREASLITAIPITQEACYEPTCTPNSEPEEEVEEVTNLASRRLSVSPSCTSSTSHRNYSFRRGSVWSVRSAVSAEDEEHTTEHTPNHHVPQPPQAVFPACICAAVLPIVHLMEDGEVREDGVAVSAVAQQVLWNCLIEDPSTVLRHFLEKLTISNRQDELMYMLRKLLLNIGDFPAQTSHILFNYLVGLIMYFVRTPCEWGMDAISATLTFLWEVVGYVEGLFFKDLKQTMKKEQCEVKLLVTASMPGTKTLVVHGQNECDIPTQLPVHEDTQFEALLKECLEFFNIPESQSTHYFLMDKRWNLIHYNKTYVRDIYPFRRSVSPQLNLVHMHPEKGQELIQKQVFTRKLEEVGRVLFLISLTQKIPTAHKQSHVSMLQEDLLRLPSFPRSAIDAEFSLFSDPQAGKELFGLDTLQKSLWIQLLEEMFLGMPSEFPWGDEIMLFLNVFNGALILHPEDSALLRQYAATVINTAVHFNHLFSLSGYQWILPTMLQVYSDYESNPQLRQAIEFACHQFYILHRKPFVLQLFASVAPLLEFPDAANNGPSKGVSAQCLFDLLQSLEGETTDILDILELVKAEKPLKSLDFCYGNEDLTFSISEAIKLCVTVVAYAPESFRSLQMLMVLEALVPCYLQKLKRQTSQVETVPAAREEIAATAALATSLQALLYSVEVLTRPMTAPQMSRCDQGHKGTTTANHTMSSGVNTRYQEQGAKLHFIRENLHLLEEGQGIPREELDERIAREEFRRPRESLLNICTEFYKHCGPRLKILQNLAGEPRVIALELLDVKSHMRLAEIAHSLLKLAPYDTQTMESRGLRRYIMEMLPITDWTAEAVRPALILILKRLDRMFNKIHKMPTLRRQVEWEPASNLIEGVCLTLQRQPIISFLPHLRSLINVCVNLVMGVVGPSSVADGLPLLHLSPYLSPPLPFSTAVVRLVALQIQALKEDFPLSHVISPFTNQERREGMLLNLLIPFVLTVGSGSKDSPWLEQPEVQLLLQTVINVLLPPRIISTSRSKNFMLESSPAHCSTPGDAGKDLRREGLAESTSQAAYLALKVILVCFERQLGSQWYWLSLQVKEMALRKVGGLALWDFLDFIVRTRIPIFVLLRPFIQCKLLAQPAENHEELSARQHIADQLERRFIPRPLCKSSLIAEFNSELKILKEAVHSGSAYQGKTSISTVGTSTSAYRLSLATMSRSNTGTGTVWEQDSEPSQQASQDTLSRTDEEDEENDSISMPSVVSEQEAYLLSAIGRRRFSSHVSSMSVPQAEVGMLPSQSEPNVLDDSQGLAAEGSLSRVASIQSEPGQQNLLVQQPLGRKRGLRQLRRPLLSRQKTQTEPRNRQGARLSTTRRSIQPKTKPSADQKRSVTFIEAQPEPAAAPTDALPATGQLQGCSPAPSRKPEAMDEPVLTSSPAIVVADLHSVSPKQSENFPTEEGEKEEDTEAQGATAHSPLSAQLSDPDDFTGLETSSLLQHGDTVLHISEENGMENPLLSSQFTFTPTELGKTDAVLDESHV

## human UNC79 (uncoordinated 79; protein unc-79 homolog), Q9P2D8 1-2635
  buried solvent accessible surface area (crossover interface): 3000 A2
